Patent US20220153851A1 (Five Prime, published 2022)
Where two headings read alike, the source gives them in different places.

B1: h0311-L0H1 (antibody, human IgG4 S228P, kappa, V domains shown)
VH: QVQLVQSGAEVKKPGSSVKVSCKASGYIFTDYNMHWVRQAPGQGLEWMGEINPNNGVVVYNQKFKGRVTITVDKSTSTAYMELSSLRSEDTAVYYCTRALYHSNFGWYFDSWGQGTLVTVSS
VL: EIVLTQSPATLSLSPGERATLSCKASQSVDYDGDSHMNWYQQKPGQAPRLLIYTASNLESGIPARFSGSGSGTDFTLTISSLEPEDFAVYYCQQGNEDPWTFGQGTKVEIKR
notes: also called Ab13; huAb 0311-L0H1
B2: h0302-L2H1 (antibody, human IgG4 S228P, kappa, V domains shown)
VH: QVQLVQSGAEVKKPGSSVKVSCKASGYTFSDFNIHWVRQAPGQGLEWMGYINPYTDVTVYNEKFKGRVTITSDKSTSTAYMELSSLRSEDTAVYYCASYFDGTFDYALDYWGQGTLVTVSS
VL: EIVVTQSPATLSLSPGERATLSCRASESVDNYGLSFMNWFQQKPGQAPRLLIYTASNLESGIPARFSGSGSRTDFTLTISSLEPEDFAVYYCQQSKELPWTFGQGTKVEIKR
notes: also called Ab9; huAb 0302-L2H1
B3: h0302-L0H1 (antibody, human IgG4 S228P, kappa, V domains shown)
VH: QVQLVQSGAEVKKPGSSVKVSCKASGYTFSDFNIHWVRQAPGQGLEWMGYINPYTDVTVYNEKFKGRVTITSDKSTSTAYMELSSLRSEDTAVYYCASYFDGTFDYALDYWGQGTLVTVSS
VL: EIVLTQSPATLSLSPGERATLSCRASESVDNYGLSFMNWYQQKPGQAPRLLIYTASNLESGIPARFSGSGSGTDFTLTISSLEPEDFAVYYCQQSKELPWTFGQGTKVEIKR
notes: also called Ab7; huAb 0302-L0H1
B4: cAb 0301 (antibody, human IgG4 S228P, kappa, V domains shown)
VH: EVQLQQSGPELVRPGASVKMSCKASGYTFTDNYMIWVKQSHGKSLEWIGDINPYNGGTTFNQKFKGKATLTVEKSSSTAYMQLNSLTSEDSAVYYCARESPYFSNLYVMDYWGQGTSVTVSS
VL: NIVLTQSPASLAVSLGQRATISCKASQSVDYDGDNYMNWYQQKPGQPPKLLIYAASNLESGIPARFSGSGSGTDFTLNIHPVEEEDAATYYCHLSNEDLSTFGGGTKLEIKR

Tests used:
[1] = target: T1, human CSF1R on CSF1R (SEQ ID NO: 2)-transfected CHO cells (human, UniProt P07333 20-972); experiment: cell-based or functional assay
[2] = target: T1, human CSF1R on CSF1R (SEQ ID NO: …); experiment: cell-based or functional assay; remark: listed apart in the source
[3] = target: T1, human CSF1R on CSF1R (SEQ ID NO: …); experiment: cell-based or functional assay; remark: listed apart in the source
cynoCSF1R ECD-Fc [4] = target: T2, cynoCSF1R ECD-Fc (cynomolgus); experiment: ELISA, plate coated with cynoCSF1R ECD-Fc
T2 construct: also called cynomolgus CSF1R ECD
Procedure: (§1) Ninety-six well clear-bottom ELISA plates were coated overnight with 1 μg/ml recombinant hCSF1R ECD.506-Fc (SEQ ID NO: 6; FivePrime Therapeutics) or Human M-CSF R Fc Chimera (R&D Systems) in PBS. The next morning, wells were washed four times with 0.05% Tween20 in PBS (PBST) and blocked with Blocker-Blotto (Pierce). Fifty μl of 0.5× serial dilutions of the humanized antibody or parental chimeric antibody, beginning with 2000 ng/ml, diluted 1:1 in Blocker-Blotto were added to the CSF1R-coated wells. After incubation at room temperature (RT) for 90 min, wells were washed four times with PBST, and a 1:5000 dilution of a peroxidase-conjugated Goat anti-Human kappa Light chain antibody (Sigma) in Blocker-Blotto was added to each well. After incubation at RT for 60 min, wells were washed four times with PBST, and 50 μl o-phenylenediamine dihydrochloride peroxidase substrate (Sigma) was added to each well. After incubation at RT for 30 min, A450 values of each well were read directly on a SpectraMaxPlus spectrophotometer with SoftMaxPro software (Molecular Devices).
The binding curve for each humanized antibody binding to cynomolgus CSF1R ECD was determined as described above for human CSF1R, except the wells of the clear-bottom ELISA plates were coated overnight with 2 μg/ml recombinant cynoCSF1R ECD-Fc (FivePrime Therapeutics, SEQ ID NO: 8, but without the 19 amino acid leader sequence).

hCSF1R ECD.506-Fc = target: T3, hCSF1R ECD.506-Fc (human); experiment: ELISA, plate coated with human CSF1R ECD-Fc
T3 construct: also called human CSF1R ECD-Fc fusion protein; human CSF1R ECD
Procedure: as §1

cynoCSF1R ECD-Fc [5] = target: T2, cynoCSF1R ECD-Fc; experiment: competition ELISA, blocking of human CSF1 binding to cynoCSF1R ECD-Fc
Procedure: (§2) The humanized antibodies, along with the parental chimeric antibodies (cAbs), were tested for their ability to block human CSF1 binding to human and cynomolgus CSF1R ECD, as follows.
(§3) Recombinant Human CSF1 (M-CSF; R&D Systems) was biotinylated using an NH₂-Biotin Labeling Kit (Dojindo Molecular Technologies). One hundred μl of 1 μg/ml biotinylated CSF1 in PBST/0.1% BSA was added to the wells of Reacti-Bind Streptavidin coated plates (Pierce) pre-blocked with SuperBlock blocking buffer (Pierce) according to the manufacturer's instructions. Fifty μl of 0.5× serial dilutions of the humanized antibody or parental chimeric antibody, beginning with 2000 ng/ml, was incubated with 50 ng/ml hCSF1R ECD.506-Fc (SEQ ID NO: 6; FivePrime Therapeutics) or 50 ng/ml cynoCSF1R ECD-Fc (FivePrime Therapeutics, SEQ ID NO: 8, but without the 19 amino acid leader sequence) in 100 μl PBST/0.1% BSA for 90 min at RT, after which the admix was transferred to one or more wells of a ligand-coated plate. After 90 min at RT, wells were washed with PBST, and a 1:5000 dilution of an Fc-fragment-specific peroxidase-conjugated goat anti-human IgG (Jackson Immuno Research) in PBST/0.1% BSA was added to each well. After incubation at RT for 60 min, wells were washed with PBST/0.1% BSA, and o-phenylenediamine dihydrochloride peroxidase substrate (Sigma) was added to each well. After incubation at RT for 30 min, A450 values of each well were read directly on a SpectraMaxPlus spectrophotometer with SoftMaxPro software (Molecular Devices).

cynoCSF1R ECD-Fc [6] = target: T2, cynoCSF1R ECD-Fc; experiment: competition ELISA, blocking of human IL34 binding to cynoCSF1R ECD-Fc
mCSF1R ECD-Fc = target: T4, mCSF1R ECD-Fc (mouse); experiment: ELISA, plate coated with mCSF1R ECD-Fc, detection anti-human kappa-HRP, A450
T4 construct: also called mouse CSF1R ECD
Procedure: as §1
The binding curve for each humanized antibody binding to mouse CSF1R ECD was determined as described above for human CSF1R, except the wells of the clear-bottom ELISA plates were coated overnight with 2 μg/ml recombinant mCSF1R ECD-Fc (FivePrime Therapeutics, SEQ ID NO: 93).

hCSF1R ECD.506 = target: T5, hCSF1R ECD.506 (human, UniProt P07333 20-506); experiment: SPR Biacore T100, antibody captured on anti-human IgG, hCSF1R ECD.506 as analyte, 1:1 model
T5 construct: also called human CSF1R ECD
Procedure: The kₐ, kd, and KD for binding to human CSF1R ECD was determined for each of the humanized antibodies as follows.
Binding kinetics of anti-CSF1R humanized antibodies to CSF1R ECD was determined using Biacore T100 Surface Plasmon Resonance (SPR) (GE Healthcare Life Sciences, Piscataway, N.Y.). Each of the humanized anti-CSF1R antibodies was captured on a CM5 sensor chip immobilized with anti-Human IgG antibody using the Human antibody capture kit (GE Healthcare Life Sciences, Piscataway, N.Y.) at 150 RU so that the Rmax value for hCSF1R ECD.506 (SEQ ID NO: 5) binding was 100 RU. Rmax values of less than 150 RU are recommended for accurately determining kinetic values. […] The association constant, dissociation constant, affinity, and binding capacity of each of the Fabs for human CSF1R ECD was calculated using the Biacore T100 Evaluation software package using the 1:1 binding model.

cynoCSF1R ECD-Fc [7] = target: T2, cynoCSF1R ECD-Fc; experiment: competition ELISA, blocking of human CSF1 binding to cynoCSF1R ECD-Fc (curve-fit value beyond the range tested)
Procedure: as §3

[8] = target: T1, human CSF1R on CSF1R (SEQ ID NO: …); experiment: cell-based or functional assay; remark: listed apart in the source
[9] = target: T1, human CSF1R on CSF1R (SEQ ID NO: …); experiment: cell-based or functional assay; remark: listed apart in the source
cynoCSF1R ECD-Fc [10] = target: T2, cynoCSF1R ECD-Fc; experiment: competition ELISA, blocking of human IL34 binding to cynoCSF1R ECD-Fc (curve-fit value far beyond the range tested); blocking of human IL34 binding to cynoCSF1R ECD
Procedure: Recombinant Human CSF1 (M-CSF; R&D Systems) was biotinylated using an NH₂-Biotin Labeling Kit (Dojindo Molecular Technologies). One hundred μl of 1 μg/ml biotinylated CSF1 in PBST/0.1% BSA was added to the wells of Reacti-Bind Streptavidin coated plates (Pierce) pre-blocked with SuperBlock blocking buffer (Pierce) according to the manufacturer's instructions. […] After incubation at RT for 30 min, A450 values of each well were read directly on a SpectraMaxPlus spectrophotometer with SoftMaxPro software (Molecular Devices).
The humanized antibodies were tested for their ability to block human IL34 binding to human CSF1R ECD. The blocking activity of each humanized antibody was determined as described above for blocking of CSF1, except recombinant human IL34 (FivePrime Therapeutics; SEQ ID NO: 68) was biotinylated using an NH2-Biotin Labeling Kit (Dojindo Molecular Technologies), and then 100 μl of 1 μg/ml biotinylated recombinant IL34 in PBST/0.1% BSA was added to the wells of Reacti-Bind Streptavidin coated plates (Pierce) pre-blocked with SuperBlock blocking buffer (Pierce) according to the manufacturer's instructions.

[11] = target: T1, human CSF1R on CSF1R (SEQ ID NO: …); experiment: cell-based or functional assay; remark: listed apart in the source
cynoCSF1R ECD-Fc [12] = target: T2, cynoCSF1R ECD-Fc; experiment: competition ELISA, blocking of human CSF1 binding to cynoCSF1R ECD-Fc; blocking of human CSF1 binding to cynoCSF1R ECD
Procedure: as §2
as §3, with “After incubation at RT for 60 min, wells were washed with PBST/0.1% BSA, and o-phenylenediamine dihydrochloride peroxidase substrate (Sigma) was added to each well.” left out

T4 sequence (chain, as listed by the source limits assumed): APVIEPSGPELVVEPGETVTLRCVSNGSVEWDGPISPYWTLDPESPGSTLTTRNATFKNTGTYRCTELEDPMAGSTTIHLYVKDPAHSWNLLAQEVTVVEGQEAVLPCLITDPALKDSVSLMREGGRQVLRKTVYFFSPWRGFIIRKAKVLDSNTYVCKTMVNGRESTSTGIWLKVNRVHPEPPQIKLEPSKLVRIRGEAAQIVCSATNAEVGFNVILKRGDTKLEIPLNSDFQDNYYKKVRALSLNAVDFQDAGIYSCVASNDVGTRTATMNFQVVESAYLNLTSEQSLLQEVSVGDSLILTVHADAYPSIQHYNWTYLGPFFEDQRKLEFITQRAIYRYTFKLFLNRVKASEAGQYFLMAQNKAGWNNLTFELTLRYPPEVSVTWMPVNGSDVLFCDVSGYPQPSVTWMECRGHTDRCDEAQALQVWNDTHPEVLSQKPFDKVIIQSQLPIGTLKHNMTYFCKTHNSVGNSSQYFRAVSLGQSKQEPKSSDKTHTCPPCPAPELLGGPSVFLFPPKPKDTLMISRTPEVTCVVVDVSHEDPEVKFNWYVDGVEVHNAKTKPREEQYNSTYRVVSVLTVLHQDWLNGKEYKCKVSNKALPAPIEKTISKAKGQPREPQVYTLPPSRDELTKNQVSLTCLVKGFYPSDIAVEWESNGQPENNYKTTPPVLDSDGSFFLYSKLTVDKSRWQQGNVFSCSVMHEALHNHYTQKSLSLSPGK
T2 sequence (chain, as listed by the source): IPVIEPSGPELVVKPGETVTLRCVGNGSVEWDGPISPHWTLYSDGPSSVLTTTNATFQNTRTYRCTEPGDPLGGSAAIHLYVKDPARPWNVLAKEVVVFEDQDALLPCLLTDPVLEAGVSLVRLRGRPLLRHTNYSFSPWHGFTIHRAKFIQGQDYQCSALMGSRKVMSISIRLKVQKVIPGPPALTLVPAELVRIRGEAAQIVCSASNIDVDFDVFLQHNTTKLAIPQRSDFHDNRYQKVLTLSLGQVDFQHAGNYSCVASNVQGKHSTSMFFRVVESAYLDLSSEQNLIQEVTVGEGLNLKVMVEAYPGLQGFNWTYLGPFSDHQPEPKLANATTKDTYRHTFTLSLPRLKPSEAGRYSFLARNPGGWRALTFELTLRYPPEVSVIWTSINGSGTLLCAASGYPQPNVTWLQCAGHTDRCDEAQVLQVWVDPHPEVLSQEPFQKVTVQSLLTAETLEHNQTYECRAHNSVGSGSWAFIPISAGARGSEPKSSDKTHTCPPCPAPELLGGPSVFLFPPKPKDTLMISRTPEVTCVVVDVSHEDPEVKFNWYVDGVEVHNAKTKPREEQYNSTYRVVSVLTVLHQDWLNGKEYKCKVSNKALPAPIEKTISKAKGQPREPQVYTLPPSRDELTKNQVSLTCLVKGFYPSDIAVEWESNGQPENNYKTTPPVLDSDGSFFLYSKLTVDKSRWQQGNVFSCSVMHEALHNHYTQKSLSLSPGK
T1 sequence (P07333 20-972): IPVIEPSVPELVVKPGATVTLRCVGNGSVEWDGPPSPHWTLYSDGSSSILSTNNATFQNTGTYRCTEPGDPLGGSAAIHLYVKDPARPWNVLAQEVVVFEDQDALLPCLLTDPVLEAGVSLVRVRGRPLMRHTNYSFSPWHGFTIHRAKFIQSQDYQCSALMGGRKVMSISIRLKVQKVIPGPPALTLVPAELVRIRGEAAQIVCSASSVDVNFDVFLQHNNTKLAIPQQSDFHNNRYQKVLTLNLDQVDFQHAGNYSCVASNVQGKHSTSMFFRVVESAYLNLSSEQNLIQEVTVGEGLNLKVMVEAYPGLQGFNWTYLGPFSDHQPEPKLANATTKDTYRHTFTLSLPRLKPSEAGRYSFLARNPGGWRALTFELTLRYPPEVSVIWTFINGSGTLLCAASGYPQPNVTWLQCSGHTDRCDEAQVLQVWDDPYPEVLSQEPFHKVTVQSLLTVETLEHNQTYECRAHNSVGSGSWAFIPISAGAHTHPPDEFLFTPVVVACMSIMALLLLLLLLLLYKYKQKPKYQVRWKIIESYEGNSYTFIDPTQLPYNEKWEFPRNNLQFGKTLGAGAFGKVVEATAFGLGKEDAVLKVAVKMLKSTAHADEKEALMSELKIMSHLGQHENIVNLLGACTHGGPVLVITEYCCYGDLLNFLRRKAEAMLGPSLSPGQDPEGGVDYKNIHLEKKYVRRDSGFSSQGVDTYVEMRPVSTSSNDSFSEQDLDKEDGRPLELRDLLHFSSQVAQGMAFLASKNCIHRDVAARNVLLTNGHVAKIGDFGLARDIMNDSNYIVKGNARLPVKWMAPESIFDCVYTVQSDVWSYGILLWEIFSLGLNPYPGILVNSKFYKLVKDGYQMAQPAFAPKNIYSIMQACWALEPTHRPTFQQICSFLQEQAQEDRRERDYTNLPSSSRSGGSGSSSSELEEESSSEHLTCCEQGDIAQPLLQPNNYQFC
T5 sequence (P07333 20-506): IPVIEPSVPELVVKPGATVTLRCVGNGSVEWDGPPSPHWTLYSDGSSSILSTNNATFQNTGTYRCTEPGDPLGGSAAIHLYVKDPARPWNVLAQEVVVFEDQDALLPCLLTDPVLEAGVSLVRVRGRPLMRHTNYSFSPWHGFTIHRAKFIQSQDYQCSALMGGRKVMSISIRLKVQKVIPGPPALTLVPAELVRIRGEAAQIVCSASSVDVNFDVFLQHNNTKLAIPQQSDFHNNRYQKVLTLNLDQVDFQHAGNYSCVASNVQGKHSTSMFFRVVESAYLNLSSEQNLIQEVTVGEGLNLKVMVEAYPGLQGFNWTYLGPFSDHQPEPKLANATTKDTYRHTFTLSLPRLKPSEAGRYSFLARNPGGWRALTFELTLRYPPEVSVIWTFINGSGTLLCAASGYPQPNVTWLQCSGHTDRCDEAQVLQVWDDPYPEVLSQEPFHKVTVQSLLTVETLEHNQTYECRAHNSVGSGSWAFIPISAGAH
T3 sequence (chain, as listed by the source limits assumed): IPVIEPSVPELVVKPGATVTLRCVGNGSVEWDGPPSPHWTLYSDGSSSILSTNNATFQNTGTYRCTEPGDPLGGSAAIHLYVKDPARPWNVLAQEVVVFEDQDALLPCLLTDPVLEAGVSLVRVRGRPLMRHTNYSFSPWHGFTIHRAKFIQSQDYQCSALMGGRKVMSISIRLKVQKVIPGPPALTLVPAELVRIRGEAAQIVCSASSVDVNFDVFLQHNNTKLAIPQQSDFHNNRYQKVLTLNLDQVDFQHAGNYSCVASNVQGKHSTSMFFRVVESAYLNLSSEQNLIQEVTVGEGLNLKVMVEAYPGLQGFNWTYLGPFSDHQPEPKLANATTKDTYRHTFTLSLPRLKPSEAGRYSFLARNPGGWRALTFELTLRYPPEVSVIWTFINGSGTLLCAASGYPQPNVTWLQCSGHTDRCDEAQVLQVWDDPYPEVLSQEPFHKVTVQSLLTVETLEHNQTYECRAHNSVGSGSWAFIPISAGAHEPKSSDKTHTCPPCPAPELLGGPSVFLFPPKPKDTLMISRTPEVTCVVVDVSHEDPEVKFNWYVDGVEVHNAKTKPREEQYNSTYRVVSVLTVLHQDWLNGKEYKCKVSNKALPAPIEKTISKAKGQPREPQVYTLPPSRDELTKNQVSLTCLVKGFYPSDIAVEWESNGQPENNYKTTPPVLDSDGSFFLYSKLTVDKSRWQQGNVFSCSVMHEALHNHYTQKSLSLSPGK

Binder | IC50, inhibition of CSF1-induced CSF1R phosphorylation (head prints 'Human CSF1/Human CSF1R ECD IC50') [1] [µg/mL] | IC50, inhibition of IL34-induced CSF1R phosphorylation (head prints 'Human IL34/Human CSF1R ECD IC50') [1] [µg/mL] | CSF1 blocking IC50 (ligand-induced CSF1R phosphorylation in CHO cells) [2] [µg/mL] | IL34 blocking IC50 (ligand-induced CSF1R phosphorylation in CHO cells) [2] [µg/mL] | IC50 (read off the curve), IL34-induced CSF1R phosphorylation [3] [µg/mL] | EC50 (cynoCSF1R ECD-Fc [4]) [µg/mL] | EC50 (hCSF1R ECD.506-Fc) [µg/mL] | IC50 (cynoCSF1R ECD-Fc [5]) [µg/mL] | IC50 (cynoCSF1R ECD-Fc [6]) [µg/mL] | binding result (mCSF1R ECD-Fc) | Kd (hCSF1R ECD.506) [nM] | koff (hCSF1R ECD.506) [s⁻¹] | kon (hCSF1R ECD.506) [M⁻¹ s⁻¹] | IC50 (cynoCSF1R ECD-Fc [7]) [µg/mL] | IC50 (read off the curve), CSF1-induced CSF1R phosphorylation [8] [µg/mL] | IC50 (read off the curve), IL34-induced CSF1R phosphorylation [9] [µg/mL] | IC50 (cynoCSF1R ECD-Fc [10]) [µg/mL] | IC50 (read off the curve), CSF1-induced CSF1R phosphorylation [11] [µg/mL] | IC50 (cynoCSF1R ECD-Fc [12]) [µg/mL]
B1 | 0.291 | 0.343 | 0.127 | 0.338 | ~0.4 | 0.0216 | 0.0131 | 0.0325 | 0.0504 | no binding (tested: 2000 ng/ml) | 0.44 | 0.00054 | 1.22e+06 | – | – | – | – | – | –
B2 | 0.384 | 0.303 | – | – | – | 0.066 | 0.00774 | – | 0.509 | no binding (tested: 2000 ng/ml) | 0.57 | 0.000914 | 1.6e+06 | 89.8 | – | – | – | – | –
B3 | 0.928 | 0.615 | – | – | – | 0.467 | 0.0146 | 0.0155 | – | no binding (tested: 2000 ng/ml) | 1.04 | 0.00369 | 3.54e+06 | – | ~1 | ~0.6 | > 2 | – | –
B4 | 0.307 | 0.312 | – | – | – | 0.0152 | 0.0114 | – | 0.0295 | no binding (tested: 2000 ng/ml) | – | – | – | – | – | – | – | ~0.3 | 0.022
